According to patent publication KR20180081029A (dated 2018):

T1: CD86 expressed on the cell surface of Raji B cells (human, UniProt P42081 24-329)
T1 construct: whole, on cells; Raji cells carry both CD80 and CD86; also called B7.2
T1 sequence (looked up): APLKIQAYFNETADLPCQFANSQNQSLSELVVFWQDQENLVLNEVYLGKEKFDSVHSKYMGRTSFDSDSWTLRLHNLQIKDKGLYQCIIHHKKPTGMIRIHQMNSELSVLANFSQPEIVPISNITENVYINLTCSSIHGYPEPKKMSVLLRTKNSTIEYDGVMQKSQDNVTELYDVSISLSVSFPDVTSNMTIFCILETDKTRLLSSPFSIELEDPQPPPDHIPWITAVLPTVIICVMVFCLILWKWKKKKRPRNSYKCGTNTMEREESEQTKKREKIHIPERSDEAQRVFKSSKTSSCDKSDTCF

T2: CD86 antigen (R&D systems, Cat. #. 141-B2-100) (human, UniProt P42081 26-245)
T2 construct: Bought reagent
T2 sequence (looked up): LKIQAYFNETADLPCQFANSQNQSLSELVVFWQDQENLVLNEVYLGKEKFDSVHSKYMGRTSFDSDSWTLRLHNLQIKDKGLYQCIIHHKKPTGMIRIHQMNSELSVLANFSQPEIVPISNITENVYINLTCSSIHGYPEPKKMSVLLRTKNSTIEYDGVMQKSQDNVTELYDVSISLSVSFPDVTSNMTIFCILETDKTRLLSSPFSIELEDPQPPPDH

B1: 3A2 (CD86) human antibody, IgG form (antibody, V domains shown)
VH: EVQLLESGGGLVQPGGSLRLSCAASGFTFSYYSMSWVRQAPGKGLEWVSSISYGPGYTYYADSVKGRFTISRDNSKNTLYLQMNSLRAEDTAVYYCARYYYYGYYYGYYGAFDYWGQGTLVTVSS
VL: EIVLTQSPGTLSLSPGERATLSCRASQSVSSSYLAWYQQKPGQAPRLLIYGASSRATGIPDRFSGSGSGTDFTLTISRLEPEDFAVYYCQQGYYSNSTFGQGTKVEIK
notes: Converted to IgG, expressed in 293F cells
B2: 3A2 (CD86), Fab clone selected from the Rz human antibody library (Fab, V domains shown)
VH: EVQLLESGGGLVQPGGSLRLSCAASGFTFSYYSMSWVRQAPGKGLEWVSSISYGPGYTYYADSVKGRFTISRDNSKNTLYLQMNSLRAEDTAVYYCARYYYYGYYYGYYGAFDYWGQGTLVTVSS
VL: EIVLTQSPGTLSLSPGERATLSCRASQSVSSSYLAWYQQKPGQAPRLLIYGASSRATGIPDRFSGSGSGTDFTLTISRLEPEDFAVYYCQQGYYSNSTFGQGTKVEIK
notes: Fab (on phage in the panning, soluble from E. coli in the ELISA, detected with anti-HA-HRP, so it carries an HA tag)

Legend:
[1] = target: T1, CD86 expressed on the cell surface of …; experiment: FACS on Raji B cells (figure legend)
[2] = target: T2, CD86 antigen (R&D systems, Cat. #. …); experiment: phage bio-panning of a Fab library on the bought antigen, binding checked by Fab ELISA (anti-HA-HRP)

Binder | binding result [1] | binding result [2]
B1 | binds | –
B2 | – | binds
